Source: patent US20200157151A1, “PEPTIDE COMPOUNDS, CONJUGATE COMPOUNDS AND USES THEREOF FOR TREATING INFLAMMATORY DISEASES” (TRANSFERT PLUS, S.E.C., priority 2017, published 2020)
Square brackets hold non-standard residues; d marks the D form. Ends that are not written are not given here. Nle = CCCC[C@H](N)C(=O)O

Target: Human recombinant Sortilin chimera protein from R&D Systems (#3154-ST) (human), Q99523
Assay: SPR (Biacore), Sortilin immobilized on CM5 chip, peptide injected

Human recombinant Sortilin chimera protein from R&D Systems (#3154-ST) (human), Q99523, sequence (Q99523 78-755, change not shown): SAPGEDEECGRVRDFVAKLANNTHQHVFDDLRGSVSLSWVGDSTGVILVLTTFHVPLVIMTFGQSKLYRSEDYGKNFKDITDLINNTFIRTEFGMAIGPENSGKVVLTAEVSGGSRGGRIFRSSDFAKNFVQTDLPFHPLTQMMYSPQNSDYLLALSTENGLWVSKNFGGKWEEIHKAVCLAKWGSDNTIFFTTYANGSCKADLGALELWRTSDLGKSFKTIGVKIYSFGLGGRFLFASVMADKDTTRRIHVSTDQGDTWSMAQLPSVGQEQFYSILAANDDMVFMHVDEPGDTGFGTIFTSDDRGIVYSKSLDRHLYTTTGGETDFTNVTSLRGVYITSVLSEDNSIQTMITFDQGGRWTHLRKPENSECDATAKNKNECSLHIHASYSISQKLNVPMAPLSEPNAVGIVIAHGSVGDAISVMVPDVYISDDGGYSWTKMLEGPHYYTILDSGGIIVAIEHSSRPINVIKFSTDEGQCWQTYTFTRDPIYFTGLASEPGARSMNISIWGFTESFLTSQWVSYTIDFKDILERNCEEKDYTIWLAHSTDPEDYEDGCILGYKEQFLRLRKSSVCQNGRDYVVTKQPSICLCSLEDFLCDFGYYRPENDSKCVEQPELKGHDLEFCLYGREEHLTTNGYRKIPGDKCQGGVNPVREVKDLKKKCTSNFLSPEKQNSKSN

Binder | Kd
Ac-GVRAKAGVRN[Nle]FKSESY [KBP-106] | 46 nM
YKSLRRKAPRWDAPLRDPALRQLL (modifications not checked) [KBP-201] | 3.3 nM
